# Test results taken from patent US6077686, “Shc proteins” (Mount Sinai Hospital Corporation, dated 2000).
# Numbering of substitutions follows the chain as printed. Names and notes keep the numbering of the source.
# B1: GST fusion protein of the ShcC PTB domain (wild type) (other)
# chain: LGPGVTYVVKYLGCIEVLRSMRSLDFSTRTQVTREAISRVCERVPGAKGALKKRKPPSKMLSSILGKSNLQFAGMSISLTISTASLNLRTPDSKQIIANHHMRSISFASGGDPDTTDYVAYVAKDPVNRRACHILECCDGLAQDVIGSIGQAFELRFKQYL
# B2: GST-ShcC PTB domain mutant T118S (other)
# chain: B1 chain with T90S
# B3: GST-ShcC PTB domain mutant E63G (other)
# chain: B1 chain with E35G
# B4: GST-ShcC PTB domain mutant M130I/S132V (other)
# chain: B1 chain with M102I, S104V
# B5: GST-ShcC PTB domain mutant G32R/A136T/C166R (other)
# chain: B1 chain with G4R, A108T, C138R
# B6: GST-ShcC PTB domain mutant G32R (other)
# chain: B1 chain with G4R
# B7: GST-ShcC PTB domain mutant A136T/C166R (other)
# chain: B1 chain with A108T, C138R
# B8: GST-ShcC PTB domain mutant A136T (other)
# chain: B1 chain with A108T
# B9: GST-ShcC PTB domain mutant T58A (other)
# chain: B1 chain with T30A
# B10: GST-ShcC PTB domain mutant G30R/H128Q (other)
# chain: B1 chain with G2R, H100Q
# B11: GST-ShcC PTB domain mutant G139E/D140N (other)
# chain: B1 chain with G111E, D112N
# B12: GST-ShcC PTB domain mutant T111I (other)
# chain: B1 chain with T83I
# B13: GST-ShcC PTB domain mutant S86C (other)
# chain: B1 chain with S58C
# B14: GST-ShcC PTB domain mutant V36M (other)
# chain: B1 chain with V8M
# Biological target: EGFR in living cells (293T cells stimulated with EGF; NIH/3T3 cells transformed by overexpression of the EGFR)
# Experiment: not given
row,Molecule,EGF-induced MAPK activity (Gal4-Elk-1 / Gal4-Luc luciferase in 293T cells) [%]
1,isolated ShcC SH2 domain expressed in cells (HA epitope-tagged SH2 domain),50

# Biological target: autophosphorylated EGF-receptor (from lysates of EGF-stimulated A431 cells) (human, UniProt P00533, autophosphorylated on tyrosine (sites not given))
# Experiment: binding of GST-PTB to the activated EGFR, normalized to wild type
row,Molecule,Relative Binding
1,B1,1
2,B2,0.81
3,B3,0.087
4,B4,1
5,B5,0.14
6,B6,0.93
7,B7,0.12
8,B8,0.16
9,B9,1.2
10,B10,1
11,B11,0.073
12,B12,1.2
13,B13,1.2
14,B14,1
